# Changes are numbered by the printed parent chain. Numbers in names are those of the source. No end group written: not given here.
# B1: BRPF2 bromodomain, wild-type, N-terminal His6-tagged (domain or fragment)
# chain: EQVAMELRLTPLTVLLRSVLDQLQDKDPARIFAQPVSLKEVPDYLDHIKHPMDFATMRKRLEAQGYKNLHEFEEDFDLIIDNCMKYNARDTVFYRAAVRLRDQGGVVLRQARREVDSIGLEEASGMHLPERPA
# B2: BRPF2 bromodomain I586F mutant (domain or fragment)
# chain: B1 chain with I31F
# What was measured:
# Test in all cases: ITC
# [1] = target: histone H4K5acK8ac (1-15) peptide (UniProt P62805 2-16, acetyl-lysine at K5 and K8)
# [2] = target: histone H4K5acK12ac (1-15) peptide (UniProt P62805 2-16, acetyl-lysine at K5 and K12)
# [3] = target: histone H4K8acK12ac (1-15) peptide (UniProt P62805 2-16, acetyl-lysine at K8 and K12)
# [4] = target: histone H4K5ac (1-15) peptide (UniProt P62805 2-16, acetyl-lysine at K5)
# [5] = target: histone H4K8ac (1-15) peptide (UniProt P62805 2-16, acetyl-lysine at K8)
# [6] = target: histone H4K12ac (1-15) peptide (UniProt P62805 2-16, acetyl-lysine at K12)
# [7] = target: B1
binder,measurement,setting,value
B1,Kd,[1],28.5 ± 1.6 µM
same,Kd,[2],3.2 ± 0.1 µM
same,Kd,[3],44.7 ± 3.5 µM
same,Kd,[4],3.5 ± 0.4 µM
same,Kd,[5],6.2 ± 0.6 µM
same,Kd,[6],18.2 ± 1.2 µM
B2,binding result,[4],binds
"GKGGAK(Ac)RHRKV (peptide, UniProt P62805 12-22, looked up) [histone H4K16ac (11-21) peptide]",Kd,[7],20.5 ± 1.4 µM
"KSTGGK(Ac)APRKQ (peptide, UniProt P68431 10-20, looked up) [histone H3K14ac (9-19) peptide]",Kd,[7],10.2 ± 0.2 µM

# From paper doi:10.1101/2022.02.20.481182 (bioRxiv, 2022)
